The target in the experiment is β2 subunit of human LFA-1 expressed in BAF/LFA-1 cells (human) (UniProt P05107). The experiment is described as follows: co-IP; lysates of BAF/LFA-1 cells transfected with vector or Spa-1, ±CXCL12 for 1 min, immunoprecipitated with anti-β2, immunoblotted with anti-FLNa.

From publication PMC4686857 come the findings set out here.

Sequence of UniProt P05107 (P05107 23-769): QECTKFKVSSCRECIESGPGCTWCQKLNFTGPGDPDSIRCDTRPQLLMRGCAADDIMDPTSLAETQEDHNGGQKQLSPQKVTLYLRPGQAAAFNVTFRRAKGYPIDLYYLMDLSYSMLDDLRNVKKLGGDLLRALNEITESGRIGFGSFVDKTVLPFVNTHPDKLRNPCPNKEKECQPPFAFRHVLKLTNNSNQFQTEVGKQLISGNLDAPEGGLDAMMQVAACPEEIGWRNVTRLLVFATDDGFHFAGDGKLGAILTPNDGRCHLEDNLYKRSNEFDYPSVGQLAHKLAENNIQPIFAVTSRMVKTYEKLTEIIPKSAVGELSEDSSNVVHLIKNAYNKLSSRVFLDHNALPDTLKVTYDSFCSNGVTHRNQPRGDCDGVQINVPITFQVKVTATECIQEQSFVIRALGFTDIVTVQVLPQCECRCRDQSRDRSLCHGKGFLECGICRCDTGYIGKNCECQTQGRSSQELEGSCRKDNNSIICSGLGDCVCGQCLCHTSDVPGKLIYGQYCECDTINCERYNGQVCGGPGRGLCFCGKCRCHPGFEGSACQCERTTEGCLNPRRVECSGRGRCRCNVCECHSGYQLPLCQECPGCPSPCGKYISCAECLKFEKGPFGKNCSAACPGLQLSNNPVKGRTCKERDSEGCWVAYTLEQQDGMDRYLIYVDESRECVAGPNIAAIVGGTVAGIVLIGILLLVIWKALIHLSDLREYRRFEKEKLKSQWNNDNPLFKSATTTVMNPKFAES

“endogenous FLNa of BAF/LFA-1 cells, Q8BTM8 1-2647” gave an FLNa co-precipitated with β2 after CXCL12 stimulation, Spa-1-expressing cells, percent of 64.7% and an FLNa co-precipitated with β2 after CXCL12 stimulation, control cells, percent of 25.2%.
